Here are results for six molecules from US20260207798A1, “CYCLIC PEPTIDES AS PET IMAGING AGENTS OF GRANZYME B” (priority 2022, published 2026).

To fix the notation:
B1: Compound 24a (peptide)
peptide: {CH2CO}-FNFEDQSVDTWQPCG-NH2
modifications: thioether N-14
SMILES: CC(C)[C@@H]1NC(=O)[C@H](CO)NC(=O)[C@H](CCC(N)=O)NC(=O)[C@H](CC(=O)O)NC(=O)[C@H](CCC(=O)O)NC(=O)[C@H](Cc2ccccc2)NC(=O)[C@H](CC(N)=O)NC(=O)[C@H](Cc2ccccc2)NC(=O)CSC[C@@H](C(=O)NCC(N)=O)NC(=O)[C@@H]2CCCN2C(=O)[C@H](CCC(N)=O)NC(=O)[C@H](Cc2c[nH]c3ccccc23)NC(=O)[C@H]([C@@H](C)O)NC(=O)[C@H](CC(=O)O)NC1=O
B2: Compound 30a (peptide)
peptide: {CH2CO}-FNFEDQGADTWQPCG-NH2
modifications: thioether N-14
SMILES: C[C@@H]1NC(=O)CNC(=O)[C@H](CCC(N)=O)NC(=O)[C@H](CC(=O)O)NC(=O)[C@H](CCC(=O)O)NC(=O)[C@H](Cc2ccccc2)NC(=O)[C@H](CC(N)=O)NC(=O)[C@H](Cc2ccccc2)NC(=O)CSC[C@@H](C(=O)NCC(N)=O)NC(=O)[C@@H]2CCCN2C(=O)[C@H](CCC(N)=O)NC(=O)[C@H](Cc2c[nH]c3ccccc23)NC(=O)[C@H]([C@@H](C)O)NC(=O)[C@H](CC(=O)O)NC1=O
B3: Compound 29a (peptide)
peptide: {CH2CO}-FNFEDQNADTWQPCG-NH2
modifications: thioether N-14
SMILES: C[C@@H]1NC(=O)[C@H](CC(N)=O)NC(=O)[C@H](CCC(N)=O)NC(=O)[C@H](CC(=O)O)NC(=O)[C@H](CCC(=O)O)NC(=O)[C@H](Cc2ccccc2)NC(=O)[C@H](CC(N)=O)NC(=O)[C@H](Cc2ccccc2)NC(=O)CSC[C@@H](C(=O)NCC(N)=O)NC(=O)[C@@H]2CCCN2C(=O)[C@H](CCC(N)=O)NC(=O)[C@H](Cc2c[nH]c3ccccc23)NC(=O)[C@H]([C@@H](C)O)NC(=O)[C@H](CC(=O)O)NC1=O
B4: Compound 27a (peptide)
peptide: {CH2CO}-FNFEDQAADTWQPCG-NH2
modifications: thioether N-14
SMILES: C[C@@H]1NC(=O)[C@H](C)NC(=O)[C@H](CCC(N)=O)NC(=O)[C@H](CC(=O)O)NC(=O)[C@H](CCC(=O)O)NC(=O)[C@H](Cc2ccccc2)NC(=O)[C@H](CC(N)=O)NC(=O)[C@H](Cc2ccccc2)NC(=O)CSC[C@@H](C(=O)NCC(N)=O)NC(=O)[C@@H]2CCCN2C(=O)[C@H](CCC(N)=O)NC(=O)[C@H](Cc2c[nH]c3ccccc23)NC(=O)[C@H]([C@@H](C)O)NC(=O)[C@H](CC(=O)O)NC1=O
B5: Compound 31a (peptide)
peptide: {CH2CO}-FNFEDQSWDTWQPCG-NH2
modifications: thioether N-14
SMILES: C[C@@H](O)[C@@H]1NC(=O)[C@H](CC(=O)O)NC(=O)[C@H](Cc2c[nH]c3ccccc23)NC(=O)[C@H](CO)NC(=O)[C@H](CCC(N)=O)NC(=O)[C@H](CC(=O)O)NC(=O)[C@H](CCC(=O)O)NC(=O)[C@H](Cc2ccccc2)NC(=O)[C@H](CC(N)=O)NC(=O)[C@H](Cc2ccccc2)NC(=O)CSC[C@@H](C(=O)NCC(N)=O)NC(=O)[C@@H]2CCCN2C(=O)[C@H](CCC(N)=O)NC(=O)[C@H](Cc2c[nH]c3ccccc23)NC1=O
B6: Compound 28a (peptide)
peptide: {CH2CO}-FNFEDQSARTWQPCG-NH2
modifications: thioether N-14
SMILES: C[C@@H]1NC(=O)[C@H](CO)NC(=O)[C@H](CCC(N)=O)NC(=O)[C@H](CC(=O)O)NC(=O)[C@H](CCC(=O)O)NC(=O)[C@H](Cc2ccccc2)NC(=O)[C@H](CC(N)=O)NC(=O)[C@H](Cc2ccccc2)NC(=O)CSC[C@@H](C(=O)NCC(N)=O)NC(=O)[C@@H]2CCCN2C(=O)[C@H](CCC(N)=O)NC(=O)[C@H](Cc2c[nH]c3ccccc23)NC(=O)[C@H]([C@@H](C)O)NC(=O)[C@H](CCCNC(=N)N)NC1=O

Bridge positions count the residues as written; N and C are the ends.

The target in the test is T1, human Granzyme B (human, UniProt P10144 21-247).
T1 construct: Captured on a Series S Streptavidin chip for SPR; also called hGranzyme B; GzmB
T1 sequence (P10144 21-247 limits assumed): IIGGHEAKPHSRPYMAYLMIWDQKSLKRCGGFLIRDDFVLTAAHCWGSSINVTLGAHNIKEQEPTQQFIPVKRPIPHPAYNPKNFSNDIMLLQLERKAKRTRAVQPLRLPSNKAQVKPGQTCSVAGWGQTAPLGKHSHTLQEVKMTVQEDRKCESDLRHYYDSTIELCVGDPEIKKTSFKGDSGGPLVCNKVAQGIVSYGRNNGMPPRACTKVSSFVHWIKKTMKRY
Description: SPR, Biacore 8k+, hGranzyme B captured on SA chip, single cycle kinetics, 1:1 model. The protocol:
The kinetics of test peptide binding to human Granzyme B (hGranzyme B) was determined by SPR. All experiments were performed at 25° C. using the Biacore 8k+ instrument (Cytiva, Marlborough, MA). The Biacore 8k+ Insight Evaluation Software Version 3.0 was used to fit the data with a 1:1 binding model to determine the association rate constant kₐ (M⁻¹s⁻¹, where “M” ~equals molar and “s” ~equals seconds) and the dissociation rate constant kd (s⁻¹). These rate constants were used to calculate the equilibrium dissociation constant. KD (M)=kd/kₐ.
To measure the binding kinetics of peptides of interest, surfaces were prepared by a capture method to a Series S Streptavidin (SA) chip using a 1×HBS-EP+ running buffer (Cytiva). hGranzyme B was diluted to 10 μg/mL in IX HBS-EP+ and flowed over spot 2 of each flow cell on the chip at a flow rate of 10 ul/min for 20 s to achieve a level of capture of ~1100 RU. An unmodified spot 1 of each flow cell was used as a matrix binding control or reference surface. Binding kinetics were measured using single cycle kinetics at 25° C. by injecting 5 concentrations with 3-fold serial dilutions of test peptides from 0.01 μM to 1 μM. Compound dilutions were performed manually in a running buffer containing 1×HBS-EP+(Cytiva), and a final concentration of 2% DMSO. The interaction analyses over hGranzyme B, were performed using a 120 s association time and a 900 s dissociation time. All experiments were conducted at a flow rate of 50 μL/min with a data collection rate of 10 Hz.
Peptide dilution series included 2 zero concentration points (no compound) which were averaged and subtracted from the peptide concentration injection as DMSO control responses. Binding data acquired from the reference surface (matrix binding control) were subtracted from the binding data for hGranzyme B surface on the chip to determine specific binding. Next, the association phase data were solvent corrected to account for any signal fluctuation throughout the experiment due to subtle DMSO concentration differences. Corrected response data were analyzed using the Biacore 8k+ Evaluation Software Version 3.0 according to the manufacturer. SPR data for representative compounds of the disclosure are found in Table 8.
Regarding B1, the Kd came out at 28.8 nM.
Molecule B2 registered a dissociation constant (Kd) of 25.9 nM.
Molecule B3 displayed a Kd of 31.4 nM.
The molecule B4 had a Kd of 10.9 nM.
For B5, the Kd stood at 23.3 nM. This Kd lies about 2.1-fold higher than the previous one.
Take B6: the affinity, expressed as Kd, was 18 nM. The Kd values of the last two molecules are within 1.5-fold of each other.
